The chains are these.
T1: S. cerevisiae eIF5-CTD, eIF5 residues 201–405 (S. cerevisiae, UniProt P38431 201-405)
T1 sequence: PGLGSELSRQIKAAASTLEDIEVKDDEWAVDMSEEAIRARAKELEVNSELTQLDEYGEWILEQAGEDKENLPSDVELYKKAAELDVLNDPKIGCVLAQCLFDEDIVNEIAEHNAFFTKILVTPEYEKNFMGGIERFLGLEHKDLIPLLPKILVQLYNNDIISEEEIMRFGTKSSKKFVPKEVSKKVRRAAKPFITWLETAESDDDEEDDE

B1: human eIF2β-NTT (residues 1–191), His6-tagged (domain or fragment)
chain: MSGDEMIFDPTMSKKKKKKKKPFMLDEEGDTQTEETQPSETKEVEPEPTEDKDLEADEEDTRKKDASDDLDDLNFFNQKKKKKKTKKIFDIDEAEEGVKDLKIESDVQEPTEPEDDLDIMLGNKKKKKKNVKFPDEDEILEKDEALEDEDNKKDDGISFSNQTGPAWAGSERDYTYEELLNRVFNIMREKN
B2: human eIF5-CTD (residues 232–431) (domain or fragment, UniProt P55010 232-431, looked up)
chain: LERTIEERVNILFDFVKKKKEEGVIDSSDKEIVAEAERLDVKAMGPLVLTEVLFNEKIREQIKKYRRHFLRFCHNNKKAQRYLLHGLECVVAMHQAQLISKIPHILKEMYDADLLEEEVIISWSEKASKKYVSKELAKEIRVKAEPFIKWLKEAEEESSGGEEEDEDENIEVVYSKAASVPKVETVKSDNKDDDIDIDAI
B3: human eIF2Bε-CTD phosphomimetic mutant (eIF2Bε-CTD-EE) (domain or fragment)
chain: GSPQMDDIKVFQNEVLGTLQRGKEENISCDNLVLEINSLKYAYNISLKEVMQVLSHVVLEFPLQQMDSPLDSSRYCALLLPLLKAWSPVFRNYIKRAADHLEALAAIEDFFLEHEALGISMAKVLMAFYQLEILAEETILSWFSQRDTTDKGQQLRKNQQLQRFIQWLKEAEEEEEEDD
B4: human eIF2Bε-CTD (domain or fragment, UniProt Q13144 543-721, looked up)
chain: B3 chain with E175S, E176S
B5: S. cerevisiae eIF2β residues 39–106 (K-boxes 2 and 3 with flanking regions) (domain or fragment, UniProt P09064 39-106, looked up)
chain: GSGDDLFAGLKKKKKKSKSVSADAEAEKEPTDDIAEALGELSLKKKKKKTKDSSVDAFEKELAKAGLD
B6: human eIF2β-K3 (K-box 3 with surrounding segments) (domain or fragment, UniProt P20042 106-173, looked up)
chain: DVQEPTEPEDDLDIMLGNKKKKKKNVKFPDEDEILEKDEALEDEDNKKDDGISFSNQTGPAWAGSERD
B7: human 5MP1-CTD (domain or fragment, UniProt Q9Y6E2 248-419, looked up)
chain: VQQSLGTRKELQKELQERLSQECPIKEVVLYVKEEMKRNDLPETAVIGLLWTCIMNAVEWNKKEELVAEQALKHLKQYAPLLAVFSSQGQSELILLQKVQEYCYDNIHFMKAFQKIVVLFYKADVLSEEAILKWYKEAHVAKGKSVFLDQMKKFVEWLQNAEEESESEGEEN
B8: human 5MP1-CTD phosphomimetic mutant (5MP1-CTD-EE) (domain or fragment)
chain: B7 chain with S165E, S167E

For assay [1], the target named is human eIF5-CTD phosphomimetic mutant (eIF5-CTD-EE) (human) (UniProt P55010). In words: NMR titration.
Assay [2] concerns the target B2. In words: ITC. (In general: In ITC the heat of successive injections is recorded.)
The target of assay [3] is B2. Description: NMR titration.
Assay [4] concerns the target B6. In words: ITC.
Assay [5] has as its target B1. In words: ITC.
In assay [6] the target is B2. Description: NMR titration. The source holds these as a separate data set.
Assay [7] has as its target B3. Description: NMR titration.
The assay “human eIF2Bε-CTD” addresses B4. Description: NMR titration.
In assay [8] the target is B8. In words: NMR titration.
The assay “human 5MP1-CTD” concerns the target B7. Description: NMR titration.
The target of assay [9] is B6. In words: NMR titration.
Assay [10] deals with B1. In words: NMR titration.
The target in assay [11] is T1, S. cerevisiae eIF5-CTD, eIF5 residues …. In words: crystal structure.

Substitutions are numbered along the chain they refer to.

For orientation: Kd means the free concentration of one partner at which half of the binding sites on the other are occupied at equilibrium, for simple one-to-one binding. Read a high Kd as lower affinity. In assay [1], “human eIF2β-K3 (K-box 3 with surrounding segments) (from UniProt P20042 106-173) (domain or fragment)” registered a Kd of 0.3 µM.
On the same count and under the same terms, under “human eIF2β-NTT (residues 1–191), His6-tagged (from UniProt P20042 1-191) (domain or fragment)” stands 2.3 µM.
Same read-out and setting: in the case of “human eIF2β-K1 (K-box 1 with surrounding segments) (from UniProt P20042 1-45) (domain or fragment)” it was 0.2 µM.
In the case of B1, the dissociation constant (Kd) in [2] came to 33 µM; in assay [3], 37 ± 6 µM.
Broadly, the stoichiometry N is a count of units in the complex or per binding partner. On to B2, for which the “stoichiometry N” value in [4] was found to be 1; in [5], 3.46.
As for DTRKKDASDDLDDLNFFNQKKKKKKTKKIFDIDEAEEGVKDLKIES (domain or fragment, UniProt P20042 60-105, looked up) [human eIF2β-K2 (K-box 2 with surrounding segments)], the dissociation constant (Kd) in assay [6] was found to be 6 ± 1 µM; in assay [7] it was 2.3 ± 0.5 µM; with human eIF2Bε-CTD, 9 ± 3 µM; in assay [8] it was 5.6 ± 0.9 µM; with human 5MP1-CTD it was 18 ± 3 µM.
As to B3, the values for the equilibrium dissociation constant (Kd) in [9] and in [10] were 14 ± 1 µM and 14 ± 4 µM, respectively.
Regarding B4, the dissociation constant Kd in [10] is 44 ± 3 µM.
Turning to B5, the binding result in assay [11] is “binds”.
On to MSGDEMIFDPTMSKKKKKKKKPFMLDEEGDTQTEETQPSETKEVE (domain or fragment, UniProt P20042 1-45, looked up) [human eIF2β-K1 (K-box 1 with surrounding segments)], for which the Kd in assay [6] turned out to be 3 ± 1 µM; in assay [7], 4 ± 1 µM; with human eIF2Bε-CTD, 8 ± 1 µM; in assay [8], 11 ± 3 µM; with human 5MP1-CTD it was 20 ± 7 µM.
Take B6: the dissociation constant (Kd) in assay [2] turned out to be 4.7 µM; in [6] it was 4 ± 1 µM; in the assay with human eIF2Bε-CTD, 24 ± 3 µM; in the assay with human 5MP1-CTD, 37 ± 5 µM.
For the molecule B7, the dissociation constant Kd in assay [10] was 63 ± 5 µM.
As to B8, the Kd in assay [9] was 23 ± 3 µM; in assay [10], 45 ± 6 µM.

These data come from PMC12439599 (RNA (New York, N.Y.), 2025).
